The supplement of paper PMC9876800

System: peptide library, one residue held at a place counted from the S/T acceptor
Test: relative phosphorylation of the sub-library (ratio to the mean residue at this position); human; higher = residue favoured
Procedure, shortened: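 Relative sub-library phosphorylation, a ratio to the mean residue at that position, was obtained by phosphorimaging and densitometry of spots on streptavidin membranes. Before capture, purified recombinant kinases were incubated for 90 min under kinase-specific conditions with 50 μM biotinylated degenerate peptide sub-libraries and 50 μM ATP spiked with γ-32P-ATP. Each sub-library fixed one residue at one position around a central Ser/Thr.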

Sequence of PRPF4B, construct: aa519-end (Q13523 519-1007, looked up): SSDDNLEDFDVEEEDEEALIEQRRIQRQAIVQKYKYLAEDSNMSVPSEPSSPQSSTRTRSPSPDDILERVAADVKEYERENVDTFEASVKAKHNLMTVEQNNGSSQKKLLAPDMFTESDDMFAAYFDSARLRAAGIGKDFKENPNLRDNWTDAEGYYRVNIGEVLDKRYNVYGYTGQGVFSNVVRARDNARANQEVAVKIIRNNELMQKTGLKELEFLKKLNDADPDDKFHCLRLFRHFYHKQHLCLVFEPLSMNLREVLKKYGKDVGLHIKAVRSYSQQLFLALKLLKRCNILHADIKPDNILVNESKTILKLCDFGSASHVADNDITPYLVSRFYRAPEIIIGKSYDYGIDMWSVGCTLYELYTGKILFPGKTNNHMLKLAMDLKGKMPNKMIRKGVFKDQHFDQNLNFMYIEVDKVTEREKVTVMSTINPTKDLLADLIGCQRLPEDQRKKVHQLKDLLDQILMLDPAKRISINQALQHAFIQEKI

PKN3, construct: Full length (from UniProt Q6P5Z2)
relative phosphorylation
Settings	at +1	at +2	at +3	at +4	at -1	at -2	at -3	at -4	at -5
A fixed	0.497	0.811	0.681	0.955	0.874	1.12	0.679	1.07	0.92
D fixed	0.614	0.652	0.765	0.967	1.01	0.684	0.44	0.823	0.801
E fixed	0.554	0.784	0.848	0.887	1.06	0.791	0.504	1.12	0.719
F fixed	4.24	0.552	0.883	0.671	0.682	0.703	0.562	0.717	0.839
G fixed	0.625	0.52	0.918	1.13	1.12	1.21	0.898	1.08	0.973
H fixed	0.667	1.55	1.32	1.3	1.21	1.12	1.06	1.09	1.12
I fixed	1.14	0.724	0.782	0.714	0.444	0.511	0.427	0.776	1.18
K fixed	0.802	1.67	1.2	1.64	1.55	1.75	1.54	1.55	1.1
L fixed	0.951	0.864	0.894	0.738	0.77	0.569	0.413	0.775	1.34
M fixed	1.83	0.728	0.833	0.858	0.854	0.771	1.28	1.07	0.97
N fixed	0.78	1.17	1	1.19	1.48	1.33	0.713	1.25	1.06
P fixed	0.426	0.432	0.736	1.36	1.56	0.721	0.899	0.924	0.955
Q fixed	0.88	0.806	1.11	1.15	1.36	1.34	0.786	0.922	0.789
R fixed	0.74	3.4	1.4	1.02	1.12	2.24	5.22	1.4	1.5
V fixed	0.892	0.753	0.807	0.716	0.558	0.711	0.496	0.801	1.07
W fixed	0.606	0.683	1.32	0.883	0.524	0.782	0.517	0.85	0.828
Y fixed	0.751	0.898	1.49	0.823	0.812	0.646	0.561	0.786	0.833
pThr fixed	0.747	0.671	0.69	0.944	0.866	0.755	0.532	0.645	0.581
pTyr fixed	0.695	0.952	0.825	0.807	0.585	0.662	0.902	0.676	0.781

PRKACB, construct: Full length (from UniProt P22694)
relative phosphorylation
Settings	at +1	at +2	at +3	at +4	at -1	at -2	at -3	at -4	at -5
A fixed	0.818	1.26	0.948	0.9	0.875	0.426	0.62	1.15	1.18
D fixed	0.607	1.56	1.15	1.36	0.667	0.196	0.231	0.657	0.772
E fixed	0.649	0.788	1.04	1.3	0.49	0.167	0.252	0.816	0.736
F fixed	0.811	0.684	0.72	0.689	0.455	0.209	0.213	0.486	0.594
G fixed	0.87	1.29	1.29	1.15	1.47	0.436	0.625	1.51	1.42
H fixed	1.22	1.7	1.45	1.05	1.22	0.786	1.34	1.27	1.22
I fixed	1.21	0.573	0.488	0.705	0.265	0.2	0.127	0.471	0.394
K fixed	1.06	0.797	0.927	0.89	1.92	3.26	2.66	1.93	2.25
L fixed	1.06	0.634	0.785	0.713	0.648	0.219	0.183	0.532	0.557
M fixed	1.46	0.701	0.79	0.747	0.856	0.25	0.204	0.782	0.601
N fixed	1.2	1.23	1.24	1.25	1.52	0.566	0.495	1.04	0.983
P fixed	0.382	1.29	1.58	1.74	1.44	0.271	0.824	1.19	1.21
Q fixed	1.3	1.23	1.22	1.34	1.17	0.555	0.715	1.04	0.97
R fixed	1.35	0.937	1.04	0.93	2.14	8.75	7.65	2.38	2.14
V fixed	0.892	0.59	0.517	0.877	0.446	0.191	0.184	0.482	0.605
W fixed	1.05	1.03	0.964	0.66	0.577	0.236	0.329	0.6	0.746
Y fixed	1.06	0.709	0.855	0.698	0.839	0.276	0.354	0.67	0.624
pThr fixed	0.988	0.988	0.984	1.67	0.443	0.319	0.474	0.789	0.727
pTyr fixed	1.06	1	1.24	1.37	0.979	0.276	0.451	0.775	0.82

PRKCG, construct: Full length (from UniProt P05129)
relative phosphorylation
Settings	at +1	at +2	at +3	at +4	at -1	at -2	at -3	at -4	at -5
A fixed	0.569	0.495	0.701	0.922	0.946	0.862	0.699	1.09	1.16
D fixed	0.22	0.261	0.452	0.666	0.538	0.455	0.412	0.62	0.676
E fixed	0.29	0.183	0.628	0.508	0.477	0.388	0.415	0.708	0.554
F fixed	1.46	0.545	0.842	0.662	0.479	0.72	0.771	0.818	1.21
G fixed	0.516	0.337	1.06	1.27	1.87	1.19	1.06	1.32	1.23
H fixed	0.686	1.26	1.23	1.32	0.972	1.12	1.3	1.28	1.23
I fixed	1.37	0.507	0.723	0.507	0.311	0.329	0.381	0.49	0.572
K fixed	1.92	4.06	2.11	2.56	1.87	2.01	2	1.55	1.71
L fixed	1.34	0.484	0.932	0.531	0.548	0.409	0.469	0.506	0.589
M fixed	1.56	0.599	0.738	0.586	0.741	0.606	0.652	0.767	0.572
N fixed	0.652	0.609	1.02	1.01	1.24	1.28	1.08	1.1	0.85
P fixed	0.333	0.334	0.516	1.36	1.16	1.16	1.12	1.09	0.937
Q fixed	1.15	0.688	0.856	1.09	1.08	1.21	0.934	1.05	0.887
R fixed	1.98	4.33	2.43	1.97	2.85	2.99	3.78	1.94	1.71
V fixed	1.15	0.48	0.608	0.563	0.497	0.418	0.496	0.639	0.723
W fixed	0.751	0.6	1.03	0.817	0.558	1	0.707	1.23	1.54
Y fixed	1.05	1.22	1.12	0.664	0.869	0.841	0.725	0.799	0.848
pThr fixed	0.973	0.563	0.673	0.486	0.484	0.746	0.805	0.947	0.683
pTyr fixed	0.794	0.916	0.911	0.498	0.875	0.842	0.973	0.86	0.8

PRPF4B, construct: aa519-end (from UniProt Q13523)
relative phosphorylation
Settings	at +1	at +2	at +3	at +4	at -1	at -2	at -3	at -4	at -5
A fixed	0.571	0.959	0.8	0.921	1.05	1.22	1.02	1.06	0.939
D fixed	0.544	0.683	0.635	0.83	0.907	0.693	0.586	1.81	1.13
E fixed	0.929	0.685	0.59	0.808	1.25	0.553	0.512	1.16	0.966
F fixed	0.507	1.27	0.722	0.958	0.81	1.27	0.409	0.856	0.905
G fixed	0.774	0.741	1.05	1.4	0.744	1.3	8.94	1.77	0.991
H fixed	0.596	1.07	1.01	1.02	0.844	0.907	0.507	1.01	0.832
I fixed	0.68	1.42	0.911	0.934	0.863	1.21	0.404	0.681	0.831
K fixed	0.56	0.713	1.08	1.03	0.894	0.582	0.382	0.747	1.04
L fixed	0.548	0.954	0.91	0.9	1.03	0.866	0.41	0.866	0.83
M fixed	0.689	1.05	0.747	1.04	1.27	0.815	0.43	0.75	0.842
N fixed	0.665	0.968	1.05	0.83	0.826	0.745	0.538	1.08	0.931
P fixed	5.85	0.725	2.53	1.02	0.785	1.47	0.587	1.13	1.18
Q fixed	0.696	0.791	0.923	0.951	1.25	0.608	0.439	0.858	0.998
R fixed	0.686	0.868	1.42	1.15	1.58	0.625	0.502	0.73	1.28
V fixed	1.56	1.44	0.953	0.882	0.922	1	0.384	0.625	0.987
W fixed	0.532	1.52	0.846	1.31	1.01	2.09	0.512	1.04	1
Y fixed	0.612	1.16	0.825	1	0.969	1.04	0.435	0.812	1.31
pThr fixed	0.638	0.803	0.794	0.583	0.68	0.828	0.697	1.72	0.911
pTyr fixed	0.586	0.825	0.74	0.735	1.15	1.2	0.791	0.882	1.36
